What was measured:
[1] = target: T1, human CD3 on cells (HPB-ALL cells, primary human T cells) (human, UniProt P07766 23-207); experiment: flow cytometry on CD4+ T cells in human PBMCs, anti-human IgG PE secondary
T1 construct: whole, on cells; only the epsilon chain is written

[2] = target: T1, human CD3 on cells (HPB-ALL cells, …); experiment: flow cytometry, human CD4+ T cells
[3] = target: T2, human BCMA on multiple myeloma cells (human, UniProt Q02223 1-184); experiment: flow cytometry on KMS-12-BM cells (BCMA+CD38+), anti-human IgG secondary, RFI
T2 construct: whole, on cells; Here the protein is the cell lines' own; also called B-cell maturation antigen; TNFRSF17
T2 sequence (looked up): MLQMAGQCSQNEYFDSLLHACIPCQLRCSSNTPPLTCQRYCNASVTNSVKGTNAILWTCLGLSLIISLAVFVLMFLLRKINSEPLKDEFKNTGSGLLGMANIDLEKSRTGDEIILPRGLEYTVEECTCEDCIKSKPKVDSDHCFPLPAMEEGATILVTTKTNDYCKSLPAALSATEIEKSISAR

[4] = target: T2, human BCMA on multiple myeloma cells; experiment: flow cytometry on NCI-H929 WT cells; one-site binding fit
[5] = target: T2, human BCMA on multiple myeloma cells; experiment: flow cytometry on KMS-12-BM cells; one-site binding fit
[6] = target: T2, human BCMA on multiple myeloma cells; experiment: flow cytometry on NCI-H929 CD38 KO cells (BCMA++CD38-), anti-human IgG secondary, RFI
[7] = target: T2, human BCMA on multiple myeloma cells; experiment: flow cytometry on NCI-H929 cells (BCMA++CD38++), anti-human IgG secondary, RFI
[8] = target: T3, human CD3 on primary human T cells (human, UniProt P07766 23-207; P04234 22-171; P09693 23-182; P20963 22-164); experiment: flow cytometry on isolated human primary T cells gated CD38-negative; one-site binding fit
T3 construct: whole, on cells; Endogenous CD3 complex on isolated human T cells, gated CD38-negative; also called CD3-expressing T cells; human CD38 negative T cells

[9] = target: T2, human BCMA on multiple myeloma cells; experiment: flow cytometry on NCI-H929 CD38 KO cells; one-site binding fit
[10] = target: T4, human CD3 on primary human CD38-negative T cells (human, UniProt P07766 23-207; P04234 22-171; P09693 23-182); experiment: flow cytometry on primary human CD38-negative T cells, one-site binding fit
T4 construct: whole, on cells; Native CD3 within the TCR/CD3 complex on isolated human T cells, gated CD38-negative

[11] = target: T5, recombinant human BCMA protein (Acrobiosystems BCA-H522y) (human, UniProt Q02223 1-54); experiment: SPR, Fab as analyte, immobilised human BCMA, 1:1 Langmuir
T5 construct: bought protein
T5 sequence (looked up): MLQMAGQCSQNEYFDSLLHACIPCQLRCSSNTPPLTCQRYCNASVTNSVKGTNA

[12] = target: T6, recombinant cynomolgus monkey BCMA protein (Acrobiosystems BCA-C52H7) (cynomolgus monkey, UniProt A0A2K5UD97 1-53); experiment: SPR, Fab as analyte, immobilised cynomolgus BCMA
[13] = target: T4, human CD3 on primary human …; experiment: flow cytometry on CD38-negative primary human T cells, RFI after subtraction of the negative control, six donors
[14] = target: T6, recombinant cynomolgus monkey BCMA …; experiment: SPR, Fab as analyte, immobilised cynomolgus BCMA, 1:1 Langmuir

T4 sequence (P07766 23-207, chain 1 of 3): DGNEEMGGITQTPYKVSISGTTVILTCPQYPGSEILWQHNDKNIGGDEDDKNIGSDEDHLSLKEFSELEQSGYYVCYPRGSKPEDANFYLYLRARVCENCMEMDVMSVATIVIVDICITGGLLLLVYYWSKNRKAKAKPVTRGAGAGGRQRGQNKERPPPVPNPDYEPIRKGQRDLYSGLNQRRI
T4 sequence (P04234 22-171, chain 2 of 3): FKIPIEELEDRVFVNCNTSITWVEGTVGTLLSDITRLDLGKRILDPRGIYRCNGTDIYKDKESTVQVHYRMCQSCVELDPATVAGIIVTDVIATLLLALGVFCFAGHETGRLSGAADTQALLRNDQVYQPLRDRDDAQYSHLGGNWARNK
T4 sequence (P09693 23-182, chain 3 of 3): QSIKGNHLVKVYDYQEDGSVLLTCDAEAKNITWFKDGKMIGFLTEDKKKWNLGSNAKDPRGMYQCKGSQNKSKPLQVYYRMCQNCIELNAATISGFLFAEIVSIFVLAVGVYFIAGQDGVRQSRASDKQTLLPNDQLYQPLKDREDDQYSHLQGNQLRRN
T1 sequence (P07766 23-207): as the sequence (P07766 23-207, chain 1 of 3) above
T6 sequence (A0A2K5UD97 entry or part of it): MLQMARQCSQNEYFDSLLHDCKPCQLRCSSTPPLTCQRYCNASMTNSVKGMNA
T3 sequence (P07766 23-207, chain 1 of 4): as the sequence (P07766 23-207, chain 1 of 3) above
T3 sequence (P04234 22-171, chain 2 of 4): as the sequence (P04234 22-171, chain 2 of 3) above
T3 sequence (P09693 23-182, chain 3 of 4): as the sequence (P09693 23-182, chain 3 of 3) above
T3 sequence (P20963 22-164, chain 4 of 4): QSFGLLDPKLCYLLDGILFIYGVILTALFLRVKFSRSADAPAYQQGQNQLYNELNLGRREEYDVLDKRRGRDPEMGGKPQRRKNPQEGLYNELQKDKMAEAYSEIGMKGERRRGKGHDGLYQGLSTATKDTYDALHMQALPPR

B1: Anti-CD3-UCP06-C1 IgG1LALA (antibody, V domains shown)
VH: QVQLVQSGAEVKKPGSSVKVSCKASGGKFSRYAISWVRQAPGQGLEWMGGIIPKGGYAEYAQKFQGRVTITADESTSTAYMELSSLRSEDTAVYYCARYGYSLYMDIWGQGTLVTVSS
VL: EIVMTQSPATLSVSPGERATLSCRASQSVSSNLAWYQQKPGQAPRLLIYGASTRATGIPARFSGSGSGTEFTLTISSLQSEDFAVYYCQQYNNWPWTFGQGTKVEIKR
notes: IgG1 LALA; also called anti-CD3-C1
- EC50 (read off the curve) [1]: ~0.04 µM
- MFI at 800 nM [2]: 45200 MFI

B2: alnuctamab (bispecific antibody)
chain 1: EVQLLESGGGLVQPGGSLRLSCAASGFTFSDNAMGWVRQAPGKGLEWVSAISGPGSSTYYADSVKGRFTISRDNSKNTLYLQMNSLRAEDTAVYYCAKVLGWFDYWGQGTLVTVSSASTKGPSVFPLAPSSKSTSGGTAALGCLVEDYFPEPVTVSWNSGALTSGVHTFPAVLQSSGLYSLSSVVTVPSSSLGTQTYICNVNHKPSNTKVDEKVEPKSCDKTHTCPPCPAPEAAGGPSVFLFPPKPKDTLMISRTPEVTCVVVDVSHEDPEVKFNWYVDGVEVHNAKTKPREEQYNSTYRVVSVLTVLHQDWLNGKEYKCKVSNKALGAPIEKTISKAKGQPREPQVCTLPPSRDELTKNQVSLSCAVKGFYPSDIAVEWESNGQPENNYKTTPPVLDSDGSFFLVSKLTVDKSRWQQGNVFSCSVMHEALHNHYTQKSLSLSPGK
chain 2: EIVLTQSPGTLSLSPGERATLSCRASQSVSDEYLSWYQQKPGQAPRLLIHSASTRATGIPDRFSGSGSGTDFTLAISRLEPEDFAVYYCQQYGYPPDFTFGQGTKVEIKRTVAAPSVFIFPPSDRKLKSGTASVVCLLNNFYPREAKVQWKVDNALQSGNSQESVTEQDSKDSTYSLSSTLTLSKADYEKHKVYACEVTHQGLSSPVTKSFNRGEC
chain 3: not shown
chain 4: EVQLLESGGGLVQPGGSLRLSCAASGFTFSTYAMNWVRQAPGKGLEWVSRIRSKYNNYATYYADSVKGRFTISRDDSKNTLYLQMNSLRAEDTAVYYCVRHGNFGNSYVSWFAYWGQGTLVTVSSASVAAPSVFIFPPSDEQLKSGTASVVCLLNNFYPREAKVQWKVDNALQSGNSQESVTEQDSKDSTYSLSSTLTLSKADYEKHKVYACEVTHQGLSSPVTKSFNRGEC
- EC50 (read off the curve) [3]: ~0.003 µM
- Kd [4]: 0.006 µM
- Kd [5]: 0.0039 µM
- EC50 (read off the curve) [6]: ~0.007 µM
- EC50 (read off the curve) [7]: ~0.006 µM
- Kd [8]: 0.252 µM
- Kd [9]: 0.0081 µM

B3: 83A10-TCBcv (bispecific antibody, human IgG1, kappa, L234A L235A)
chain 1: not shown
chain 2: not shown
chain 3: not shown
chain 4: EVQLLESGGGLVQPGGSLRLSCAASGFTFSTYAMNWVRQAPGKGLEWVSRIRSKYNNYATYYADSVKGRFTISRDDSKNTLYLQMNSLRAEDTAVYYCVRHGNFGNSYVSWFAYWGQGTLVTVSSASVAAPSVFIFPPSDEQLKSGTASVVCLLNNFYPREAKVQWKVDNALQSGNSQESVTEQDSKDSTYSLSSTLTLSKADYEKHKVYACEVTHQGLSSPVTKSFNRGEC
notes: CD3xBCMA bispecific comparator; also called EM-801; CD3xBCMA benchmark
- Kd [10]: 0.08 µM
- Max binding (RFI) [10]: 103000 RFI

B4: Anti-CD3-UCP07-F3 IgG1LALA (antibody, V domains shown)
VH: EVQLLESGGGLVQPGGSLRLSCAASGFNFSGHAVGWVRQAPGKGLEWVSAISQNGGYTLYADSVKGRFTISRDNSKNTLYLQMNSLRAEDTAVYYCARAASYGLDYALDIWGQGTLVTVSS
VL: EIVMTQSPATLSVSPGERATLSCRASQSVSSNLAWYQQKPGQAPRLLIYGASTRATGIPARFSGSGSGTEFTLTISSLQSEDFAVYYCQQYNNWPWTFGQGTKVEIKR
notes: IgG1 LALA
- binding result [1]: no binding (tested: 800 nM)

B5: anti-BCMA-UCP01-A8 FAB (Fab, V domains shown)
VH: QVQLVQSGAEVKKPGSSVKVSCKASGGLFNYYIINWVRQAPGQGLEWMGGIIPTYGGAGYAQKFQGRVTITADESTSTAYMELSSLRSEDTAVYYCARSSPSISGYAFDVWGQGTLVTVSS
VL: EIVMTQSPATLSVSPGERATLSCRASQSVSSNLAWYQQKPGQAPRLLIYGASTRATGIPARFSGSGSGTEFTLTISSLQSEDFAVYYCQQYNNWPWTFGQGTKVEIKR
notes: Fab
- Kd [11]: 0.235 µM
- binding result [12]: no binding

B6: TNB-F2B BEAT Fc (bispecific antibody, human IgG1, kappa, L234A L235A)
chain 1: EVQLVESGGGLVQPGRSLRLSCAASGFTFDDYAMHWVRQAPGKGLEWVSGISWNSGSIGYADSVKGRFTISRDNAKNSLYLQMNSLRAEDTALYYCAKDSRGYGDYRLGGAYWGQGTLVTVSSASTKGPSVFPLAPSSKSTSGGTAALGCLVKDYFPEPVTVSWNSGALTSGVHTFPAVLQSSGLYSLSSVVTVPSSSLGTQTYICNVNHKPSNTKVDKKVEPKSCDKTHTCPPCPAPEAAGGPSVFLFPPKPKDTLMISRTPEVTCVVVDVSHEDPEVKFNWYVDGVEVHNAKTKPREEQYNSTYRVVSVLTVLHQDWLNGKEYKCKVSNKALPAPIEKTISKAKGQPREPAVYTLPPSREEMTKNQVKLVCLVTGFYPSDIAVEWESSGQPENNYYTTPPMLDSDGSFSLVSWLNVDKSRWQQGNIFSCSVMHEALHNRFTQKSLSLSPG
chain 2: EVQLLESGGGLVQPGGSLRLSCAASGFTVSSYGMSWVRQAPGKGPEWVSGIRGSDGSTYYADSVKSRFTISRDNSKNTLYLQMNSLRAEDTAVYYCAKQGENDGPFDHRGQGTLVTVSSGGGGSEVQLLESGGGLVQPGGSLRLSCAASGFTVSSYGMSWVRQAPGKGPEWVSGIRGSDGSTYYADSVKSRFTISRDNSKNTLYLQMNSLRAEDTAVYYCAKQGENDGPFDHRGQGTLVTVSSGGGGTDKTHTCPPCPAPEAAGGPSVFLFPPKPKDTLMISRTPEVTCVVVDVSHEDPEVKFNWYVDGVEVHNAKTKPREEQYNSTYRVVSVLTVLHQDWLNGKEYKCKVSNKALPAPIEKTISKAKGQPREPEVATFPPSRDELTKNQVTLVCLVTGFYPSDIAVEWESNGQPENNYKTDPPLLESQGSFALSSRLRVDKSRWQQGNVFSCSVMHEALHNHYTQKSLSLSPG
light: not shown
notes: CD3 Fab (TNB-F2B) x BCMA dAb-dAb (TNB-BCMA) on a silenced (LALA) BEAT Fc; also called CD3xBCMA benchmark
- binding result [13]: no binding (tested: 800 nM)
- Max binding (RFI) [10]: 60 RFI

B7: anti-BCMA-PP03-E4 FAB (Fab, V domains shown)
VH: EVQLLESGGGLVQPGGSLRLSCAASGFALSYYAMSWVRQAPGKGLEWVSAISEDGGRTSYADSVKGRFTISRDNSKNTLYLQMNSLRAEDTAVYYCARASAYIPYSEFYAGFDVWGQGTLVTVSS
VL: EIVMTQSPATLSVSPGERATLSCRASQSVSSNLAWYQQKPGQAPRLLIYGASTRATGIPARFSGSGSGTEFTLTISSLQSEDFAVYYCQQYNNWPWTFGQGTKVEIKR
notes: Fab
- Kd [11]: 0.582 µM
- Kd [14]: 0.696 µM

B8: anti-BCMA-UCP01-E8 FAB (Fab, V domains shown)
VH: QVQLVQSGAEVKKPGSSVKVSCKASGGQFSVQFISWVRQAPGQGLEWMGGIIPTSGDTYYAQKFQGRVTITADESTSTAYMELSSLRSEDTAVYYCARSVVDLSYVTGYYYMDIWGQGTLVTVSS
VL: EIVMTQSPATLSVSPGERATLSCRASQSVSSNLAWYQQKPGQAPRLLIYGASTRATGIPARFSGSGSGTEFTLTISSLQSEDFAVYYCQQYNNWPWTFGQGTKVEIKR
notes: Fab
- Kd [11]: 1.75 µM
- binding result [12]: no binding

B9: Anti-CD3-UCP07-B2 IgG1LALA (antibody, V domains shown)
VH: EVQLVESGGGLVKPGGSLRLSCAASGFDFGKAWMAWVRQAPGKGLEWVGRIKSDFKGGDTIYAAPVKGRFTISRDDSKNTLYLQMNSLKTEDTAVYYCARGRSRGVSEFDYWGQGTLVTVSS
VL: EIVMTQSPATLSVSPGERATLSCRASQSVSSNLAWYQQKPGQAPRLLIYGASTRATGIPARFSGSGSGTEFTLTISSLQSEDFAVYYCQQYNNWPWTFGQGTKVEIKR
notes: IgG1 LALA
- binding result [1]: no binding (tested: 800 nM)

B10: anti-BCMA-PP03-C4 FAB (Fab, V domains shown)
VH: EVQLLESGGGLVQPGGSLRLSCAASGFTFTAYDMSWVRQAPGKGLEWVSAISGFGGDTLYADSVKGRFTISRDNSKNTLYLQMNSLRAEDTAVYYCARIGYYYLDSAFDYWGQGTLVTVSS
VL: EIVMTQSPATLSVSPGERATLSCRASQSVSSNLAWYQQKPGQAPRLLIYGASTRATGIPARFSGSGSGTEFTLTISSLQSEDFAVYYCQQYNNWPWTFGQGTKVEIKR
notes: Fab
- Kd [11]: 0.549 µM
- Kd [14]: 0.109 µM

B11: anti-BCMA-PP02-C2 FAB (Fab, V domains shown)
VH: QVQLVQSGAEVKKPGSSVKVSCKASGGHFSSYAISWVRQAPGQGLEWMGGIIPQHGVPSYAQKFQGRVTITADESTSTAYMELSSLRSEDTAVYYCARVLITVDGSYGGFDYWGQGTLVTVSS
VL: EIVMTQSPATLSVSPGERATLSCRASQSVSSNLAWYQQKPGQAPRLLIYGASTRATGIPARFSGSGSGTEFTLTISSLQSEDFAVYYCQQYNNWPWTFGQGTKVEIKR
notes: Fab
- Kd [11]: 0.915 µM
- binding result [12]: no binding

B12: Anti-CD3-UCP07-A4 IgG1LALA (antibody, V domains shown)
VH: EVQLLESGGGLVQPGGSLRLSCAASGSTFRRYVMGWVRQAPGKGLEWVSAISQQGGYTYYADSVKGRFTISRDNSKNTLYLQMNSLRAEDTAVYYCARSSSSAFDVWGQGTLVTVSS
VL: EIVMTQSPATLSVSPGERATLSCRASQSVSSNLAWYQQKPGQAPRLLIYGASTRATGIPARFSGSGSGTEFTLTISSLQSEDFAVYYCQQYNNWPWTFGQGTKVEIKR
notes: IgG1 LALA
- binding result [1]: no binding (tested: 800 nM)

B13: anti-BCMA-UCP01-F9 FAB (Fab, V domains shown)
VH: QVQLVQSGAEVKKPGSSVKVSCKASGYKFRTYAINWVRQAPGQGLEWMGGIVPISGETFYAQKFQGRVTITADESTSTAYMELSSLRSEDTAVYYCAREDYSDYWGQGTLVTVSS
VL: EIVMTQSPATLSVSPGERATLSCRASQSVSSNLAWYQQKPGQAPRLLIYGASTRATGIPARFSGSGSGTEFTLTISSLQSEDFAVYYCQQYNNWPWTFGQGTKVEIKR
notes: Fab
- Kd [11]: 0.617 µM
- binding result [12]: no binding

B14: anti-BCMA-UCP01-C2 FAB (Fab, V domains shown)
VH: EVQLLESGGGLVQPGGSLRLSCAASGFIFSQYDMSWVRQAPGKGLEWVSAISLLGDFTSYADSVKGRFTISRDNSKNTLYLQMNSLRAEDTAVYYCARRLTDYISGGGDGFDVWGQGTLVTVSS
VL: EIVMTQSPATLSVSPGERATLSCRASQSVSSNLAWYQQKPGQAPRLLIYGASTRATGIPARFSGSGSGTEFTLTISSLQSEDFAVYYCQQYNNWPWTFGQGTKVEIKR
notes: Fab
- Kd [11]: 0.336 µM
- binding result [12]: no binding

Source: patent US20240132615A1 (ICHNOS SCIENCES, published 2024)
